This note sets out measurements from patent US20110135636A1 (SYMPHOGEN A S, published 2011).

The target of assay [1] is T1, full length human EGFR expressed on the cell surface (human, UniProt P00533 25-1210).
T1 construct: whole, on cells; also called EGFR on A431-NS cells; EGFR on HN5 cells
Description: cell ELISA, IgG titrated on unfixed A431-NS cells after saturation with Fab 992; given as ED50. Here is the method:
(§1) Cell ELISA: The ELISA was performed essentially as described in example 15 with modifications. Cells were left unfixed to allow conformational EGFR flexibility after antibody additions. Briefly, 10,000 A431-NS cells were grown in 96 well ELISA plates containing DMEM with added 0.5% FCS and 1% P/S at 37° C., 5% CO₂ overnight. […] 25 μl DMEM containing 1% BSA was added to wells used for testing of IgG antibodies without added Fab fragments. […] Next, wells were washed four times with PBS and 50 μl of a secondary monoclonal Mouse-anti-Human (Fc specific) HRP conjugate diluted 1:5000 in DMEM containing 1% BSA was added and incubated on ice for 30 min. Finally wells were washed four times with PBS and plates developed by adding 50 μl/well TMB substrate and read at 620 nm every 5-15-30 min. After incubation with substrate the reaction was stopped by addition of 1 M H₂SO₄ and absorbance read at 450 nm. The functional affinity expressed as ED50 values were calculated by subtraction of the average background binding with secondary reagent only, followed by normalization of the binding curves by plotting % maximal binding relative to each antibody tested.
(§2) Investigations of antibody induced binding enhancements were determined by concurrent ELISA binding studies, employing same secondary antibody reagent and incubation times.

Assay [2] addresses T2, recombinant human EGFR extracellular domain with 6xHis (human, UniProt P00533 25-645).
T2 construct: In-house produced; also called 6xHis EGFR ECD; soluble human EGFR ECD; not shown: 6xHis tag
In words: SPR competition, EGFR ECD first saturated with mix N=6 1261+1347+992+1024+1030+1361. Here is the method:
(§3) SPR analysis was performed on a Biacore 3000 machine containing four flow cells. A CM5 Biacore chip was conjugated with 10,000 Resonance units (Ru) polyclonal anti-His antibody to flow cells 1-4 according to the manufacturer's instructions. […] Immediately after antigen injection the maximal binding of the Anti-EGFR mAb without competition was established in each flow cell during a reference run. Briefly 5 μl antibody at a concentration of 40 μg/ml was injected over all flow cells with captured EGFR followed by stripping of the antibody/antigen complex with a low pH acid wash (10 sec. contact time with 10 mM Glycine-HCl, pH2). After the determination of Anti-EGFR antibody maximal binding to each flow cell, a competition run was performed during the same Biacore cycle. Flow cells were first saturated with EGFR ECD antigen followed by injection of different reference antibodies or Anti-EGFR antibodies into separate flow cells using the same antigen saturating conditions as outlined above. This step was immediately followed by a second injection of Anti-EGFR antibody over the flow cell saturated with EGFR antigen and competition antibody to minimize the dissociation of either antigen or blocking antibody. Then the antibody/antigen complexes were stripped off with a low pH acid wash (10 sec. contact time with 10 mM Glycine-HCl, pH 2) and the whole cycle beginning with the reference run was repeated with a new Anti-EGFR antibody. The degree of inhibition of tested Anti-EGFR antibodies were determined by comparing the Ru max value of the individual Anti-EGFR antibody before and after competition by introduction of report points recorded two seconds before and after injection of each sample.

Assay [3] has as its target T1, full length human EGFR expressed on the …. In words: cell ELISA, IgG titrated on unfixed A431-NS cells after saturation with Fab 992 and Fab 1024; given as ED50. Here is the method: as §1, §2
In general terms: In an ELISA, binding on a coated surface is turned into a signal by an enzyme label.

The target in assay [4] is T2, recombinant human EGFR extracellular …. In words: SPR, reference cycle of the run with mix N=6-1. Here is the method:
as §3
Background: In SPR one partner is held on a chip, and binding of the other changes the refractive index at the surface.

The target of assay [5] is T1, full length human EGFR expressed on the …. In words: cell ELISA, IgG titrated on unfixed A431-NS cells after saturation with Fab 1030; given as ED50. Here is the method:
as §1, §2

Assay [6] has the same target. Description: cell ELISA, IgG titrated on unfixed A431-NS cells after saturation with Fab 1024 and Fab 1030; given as ED50. Here is the method: as §1, §2
For assay [7] the target is unchanged. Description: cell ELISA, IgG titrated on unfixed A431-NS cells after saturation with Fab 1024; given as ED50. Here is the method:
as §1, §2

Assay [8] addresses T3, wild type full length EGFR purified from A431 cells (human, UniProt P00533 25-1210).
T3 construct: mature; Bought; coated on ELISA wells; also called full length EGFR receptor antigen; Sigma E3641
Description: EGF blocking ELISA on coated full length EGFR; blocked ligand biotinylated EGF. Here is the method: The next morning wells were washed twice with PBS-T and blocked for one hour with 150 μl PBS-T-1% BSA at room temperature, followed by wash twice in PBS-T. Next 80 μl of serially diluted Anti-EGFR antibodies and control antibodies were added to wells and incubated 30 min at room temperature. […] Subsequently wells were washed five times with PBS-T, followed by incubation with 100 μl/well Streptavidin-HRP secondary reagent diluted 1:1000 in blocking buffer and incubation at room temperature for 30 min. Finally wells were washed five times with PBS-T and plates were developed by adding 100 μl/well TMB substrate and incubated for 60 min. After incubation the reaction was stopped by addition of 1 M H₂SO₄; 100 μl/well and plates were read at OD 450 nm.

Assay [9] addresses T1, full length human EGFR expressed on the …. In words: cell ELISA, IgG titrated on unfixed A431-NS cells after saturation with Fab 992 and Fab 1030; given as ED50. Here is the method: as §1, §2

B1: antibody 1030 (antibody, human IgG1, kappa, V domains shown)
VH: EVQLVESGGGLVKPGGSLKLSCAASGFTFSSYALSWVRQTPERRLEWVASISGVGSTYFPDSVKGRFTMSRDNARNILYLQMSSLRSEDTAMYYCARGSDGYFYAMDYWGQGTSVTVSS
VL: DIVLTQSPASLAVSLGQRATISCRASKSVSTSGYSFMHWYQLKPGQPPKLLIYLASNLESGVPARFSGSGSGTDFTLNIHPVEEEDAATYYCQHSREFPLTFGGGTKLEIKR
notes: Chimeric IgG1 kappa
In [1], B1 returned an EC50 of 1.6 nM. Further, in assay [2], the “% inhibition” value stood at 87% and the Rumax competition cycle is 12 Ru. The molecule further registered an EC50 in assay [3] of 2.2 nM. The Rumax reference cycle in assay [4] turned out to be 74 Ru.

B2: antibody 992 (antibody, human IgG1, kappa, V domains shown)
VH: EVQLQQPGSELVRPGASVKLSCKASGYTFTSYWMHWVKQRPGQGLEWIGNIYPGSRSTNYDEKFKSKATLTVDTSSSTAYMQLSSLTSEDSAVYYCTRNGDYYVSSGDAMDYWGQGTSVTVSS
VL: DIQMTQTTSSLSASLGDRVTISCRTSQDIGNYLNWYQQKPDGTVKLLIYYTSRLHSGVPSRFSGSGSGTDFSLTINNVEQEDVATYFCQHYNTVPPTFGGGTKLEIKR
notes: Chimeric mouse/human IgG1 kappa; the VL entry includes the human kappa constant region
On to B2, for which the “% inhibition” value in assay [2] came out at 116%. For the same molecule, the Rumax competition cycle in assay [2] is -14 Ru. For the same molecule, the EC50 in [5] worked out at 0.4 nM; in [6], 0.5 nM; in assay [7] it was 0.5 nM. Further, the Rumax reference cycle in assay [4] was 71 Ru.

B3: antibody 1261 (antibody, human IgG1, kappa, V domains shown)
VH: EVQLVESGGGLVKPGGSLKLSCAVSGFTFSSYVMSWVRQTPEKRLEWVATITSGGRNIYYLDSVKGRFTISRDNAKNTLYLQMSSLRSEDTAMYYCARHEDYRYDGYYAMDYWGQGTSVTVSS
VL: QIVLTQSPAIMSASPGEKVTITCSASSSVSYMHWFQQKPGTSPKLWIYSTSNLASGVPARFSGSGSGTSYSLTISRMEAEDAATYYCQQRSSYPYTFGGGTKLELKR
notes: Chimeric IgG1 kappa
For the molecule B3, in [2], the “% inhibition” value amounted to 95% and the Rumax competition cycle worked out at 7 Ru. In addition, the Rumax reference cycle in assay [4] came out at 139 Ru.

B4: antibody 1347 (antibody, human IgG1, kappa, V domains shown)
VH: QVQLKESGPGLVAPSQSLSITCTVSGFSLTGHGVNWVRQPPGKGLEWLGMIWGDGSTDYNSTLKSRLSISKDNSKSQVFLKMNSLQTDDTARYYCARGYGYLYYFDYWGQGTTLTVSS
VL: ENVLTQSPAIMSASPGEKVTMTCRASSSVSSSYLHWYQQKSGASPKLWIYSTSNLASGVPARFSGSGSGTSYSLTVNSVETEDAATYYCHQYSGFPFTFGSGTKLELKR
notes: Chimeric IgG1 kappa
As to B4, in [2], the “% inhibition” value was determined as 80% and the Rumax competition cycle worked out at 19 Ru. In [4], the Rumax reference cycle is 107 Ru.

B5: antibody 1260 (antibody, human IgG1, kappa, V domains shown)
VH: QVQLKESGPGLVAPSQSLSITCTVSGFSLTTYGVHWVRQPPGKGLEWLGVIWAGGSTNYNSALMSRLSIKKDNSKSQVFLKMNSLQTDDTAMYYCARAYGYNFDYWGQGTTLTVSS
VL: DIQMTQTTSSLSASLGDRVTISCSASQGITNYLNWYQQKPDGTVKLLIYYSSSLHSGVPSRFSGSGSGTDYSLTISNLEPEDIATYYCQQYSEIPYTFGGGTKLELKR
notes: Chimeric IgG1 kappa
In the case of B5, the “IC50 (read off the curve)” value in assay [8] is about 50 ng mAb/ml.

B6: antibody 1024 (antibody, human IgG1, kappa, V domains shown)
VH: QVQLQQPGAELVEPGGSVKLSCKASGYTFTSHWMHWVKQRPGQGLEWIGEINPSSGRNNYNEKFKSKATLTVDKSSSTAYMQFSSLTSEDSAVYYCVRYYGYDEAMDYWGQGTSVTVSS
VL: DIVMTQAAFSNPVTLGTSASISCRSSKSLLHSNGITYLYWYLQKPGQSPQLLIYQMSNLASGVPDRFSSSGSGTDFTLRISRVEAEDVGVYYCAQNLELPYTFGGGTKLEIKR
notes: Chimeric IgG1 kappa
Regarding B6, the EC50 is 0.9 nM in [1] and 0.8 nM in [9]. Moreover, the “% inhibition” value in [2] was determined as 113%. In assay [2], the Rumax competition cycle was -14 Ru. Further, the Rumax reference cycle in [4] turned out to be 122 Ru.

B7: antibody 1208 (antibody, human IgG1, kappa, V domains shown)
VH: EVQLVESGGGLVKPGGSLKLSCAASGFAFSSYDMSWVRQTPEKRLEWVAYIGSGDDNTHYPDSVKGRFTISRHNAKNTLYLQMSSLKSEDTAMYYCARQKYGNYGDTMDYWGQGTSVTVSS
VL: DVVMTQTPLSLPVSLGDQASISCRSSQSLVHSNGNTYLHWYLQKPGQSPKLLIYKVSNRFSGVPDRFSGSGSGTDFTLKISRVEAEDLGVYFCSQSTHVPTFGGGTKLEIKR
notes: Chimeric IgG1 kappa; also called clone 1208
B7: the “IC50 (read off the curve)” value in assay [8] is about 20 ng mAb/ml.

As usually defined, the EC50 is the concentration needed to bring the measured effect to its halfway point. In general, % inhibition refers to the relative decrease from the control value, in per cent.
